Measured values taken from paper PMC7521798 (Molecular Biology of the Cell, 2020).

Target: GFP-IQGAP1 ∆GRD (1004–1237 aa deleted) (UniProt P46940 1-1657, 1004–1237 aa deleted)
Test: co-IP

- fold less association with R-ras than IQGAP1, IQGAP1 ∆IQ or IQGAP1 ∆WW: 5 fold
B1: R-ras (natural protein, mouse (endogenous in NIH-3T3 and MEFs), UniProt P10833 1-218, looked up)
chain: MSSGAASGTGRGRPRGGGPGPRDPPPGETHKLVVVGGGGVGKSALTIQFIQSYFVSDYDPTIEDSYTKICTVDGIPARLDILDTAGQEEFGAMREQYMRAGNGFLLVFAINDRQSFNEVGKLFTQILRVKDRDDFPIVLVGNKADLENQRQVLRSEASSFSASHHMTYFEASAKLRLNVDEAFEQLVRAVRKYQEQELPPSPPSAPRKKDGGCPCVLL
